Biological target: recombinant human TNF-alpha (human) (UniProt P01375)
Assay: Scatchard analysis in solution: 125I-TNF and unlabelled TNF, antibody captured on anti-IgG agarose beads

UniProt P01375, sequence (P01375 77-233 limits assumed): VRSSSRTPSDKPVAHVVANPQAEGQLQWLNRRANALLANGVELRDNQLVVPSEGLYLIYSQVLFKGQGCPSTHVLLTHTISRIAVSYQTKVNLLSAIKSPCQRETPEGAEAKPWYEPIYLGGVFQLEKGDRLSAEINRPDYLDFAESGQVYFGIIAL

Kd: 0.14 nM
Substance: CDP571 (CDR-grafted CB0010, gEU light chain / 2hEUg heavy chain) (antibody)

Reference: patent WO1992011383A1
